Assays:
Assay in all cases: IP/MS, LZTR1 R810W-FLAG, U87
HTT = HTT (human, UniProt P42858 1-3142)
Method in brief: (§1)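 Read-out: spectral counts from LC-MS/MS (Orbitrap Fusion) after MaxQuant identification. Variable modifications were Met oxidation, protein N-terminal acetylation and N/Q deamidation.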

EIF2AK4 = EIF2AK4 (human, UniProt Q9P2K8 1-1649, limits assumed)
Method in brief: as §1

USP47 = target: T1, USP47 (human, UniProt Q96K76 1-1375, limits assumed)
T1 sequence (looked up): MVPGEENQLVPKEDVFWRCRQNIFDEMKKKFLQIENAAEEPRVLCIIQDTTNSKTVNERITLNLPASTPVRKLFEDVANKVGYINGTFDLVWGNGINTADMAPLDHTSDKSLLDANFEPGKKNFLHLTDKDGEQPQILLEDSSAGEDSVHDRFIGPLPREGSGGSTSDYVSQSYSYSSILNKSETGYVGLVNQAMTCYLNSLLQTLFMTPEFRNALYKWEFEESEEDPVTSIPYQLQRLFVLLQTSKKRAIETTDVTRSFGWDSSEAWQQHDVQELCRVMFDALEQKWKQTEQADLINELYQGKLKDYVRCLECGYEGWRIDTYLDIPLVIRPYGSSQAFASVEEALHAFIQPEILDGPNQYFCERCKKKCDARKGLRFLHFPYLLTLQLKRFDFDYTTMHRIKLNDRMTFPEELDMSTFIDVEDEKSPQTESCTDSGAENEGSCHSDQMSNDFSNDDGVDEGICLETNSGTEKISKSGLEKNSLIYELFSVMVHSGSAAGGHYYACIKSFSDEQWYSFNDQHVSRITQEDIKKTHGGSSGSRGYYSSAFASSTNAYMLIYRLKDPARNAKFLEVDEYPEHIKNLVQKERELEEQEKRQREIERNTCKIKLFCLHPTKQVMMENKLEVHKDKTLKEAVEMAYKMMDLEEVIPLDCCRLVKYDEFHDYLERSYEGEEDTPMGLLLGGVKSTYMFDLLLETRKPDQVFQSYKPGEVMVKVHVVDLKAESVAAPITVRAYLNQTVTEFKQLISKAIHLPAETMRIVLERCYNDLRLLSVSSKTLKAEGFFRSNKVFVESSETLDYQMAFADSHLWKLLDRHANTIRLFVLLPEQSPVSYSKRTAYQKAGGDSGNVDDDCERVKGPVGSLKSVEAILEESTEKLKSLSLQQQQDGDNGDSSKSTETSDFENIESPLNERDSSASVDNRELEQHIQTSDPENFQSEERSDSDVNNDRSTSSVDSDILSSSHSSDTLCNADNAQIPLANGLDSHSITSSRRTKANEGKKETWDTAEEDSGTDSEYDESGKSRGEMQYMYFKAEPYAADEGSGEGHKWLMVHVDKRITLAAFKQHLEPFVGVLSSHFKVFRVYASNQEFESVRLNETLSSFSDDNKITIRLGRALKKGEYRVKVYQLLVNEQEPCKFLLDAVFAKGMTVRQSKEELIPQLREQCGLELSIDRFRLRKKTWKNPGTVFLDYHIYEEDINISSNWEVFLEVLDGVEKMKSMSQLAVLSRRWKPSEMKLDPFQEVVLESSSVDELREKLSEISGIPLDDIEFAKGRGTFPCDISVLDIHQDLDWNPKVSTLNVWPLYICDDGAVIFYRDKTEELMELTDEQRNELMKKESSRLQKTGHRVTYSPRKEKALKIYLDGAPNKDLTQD
Method in brief: as §1

SPG11 = SPG11 (human, UniProt Q96JI7 1-2443, limits assumed)
Method in brief: as §1

Measured: binding result

Chain of SPG11 (Q96JI7 whole entry): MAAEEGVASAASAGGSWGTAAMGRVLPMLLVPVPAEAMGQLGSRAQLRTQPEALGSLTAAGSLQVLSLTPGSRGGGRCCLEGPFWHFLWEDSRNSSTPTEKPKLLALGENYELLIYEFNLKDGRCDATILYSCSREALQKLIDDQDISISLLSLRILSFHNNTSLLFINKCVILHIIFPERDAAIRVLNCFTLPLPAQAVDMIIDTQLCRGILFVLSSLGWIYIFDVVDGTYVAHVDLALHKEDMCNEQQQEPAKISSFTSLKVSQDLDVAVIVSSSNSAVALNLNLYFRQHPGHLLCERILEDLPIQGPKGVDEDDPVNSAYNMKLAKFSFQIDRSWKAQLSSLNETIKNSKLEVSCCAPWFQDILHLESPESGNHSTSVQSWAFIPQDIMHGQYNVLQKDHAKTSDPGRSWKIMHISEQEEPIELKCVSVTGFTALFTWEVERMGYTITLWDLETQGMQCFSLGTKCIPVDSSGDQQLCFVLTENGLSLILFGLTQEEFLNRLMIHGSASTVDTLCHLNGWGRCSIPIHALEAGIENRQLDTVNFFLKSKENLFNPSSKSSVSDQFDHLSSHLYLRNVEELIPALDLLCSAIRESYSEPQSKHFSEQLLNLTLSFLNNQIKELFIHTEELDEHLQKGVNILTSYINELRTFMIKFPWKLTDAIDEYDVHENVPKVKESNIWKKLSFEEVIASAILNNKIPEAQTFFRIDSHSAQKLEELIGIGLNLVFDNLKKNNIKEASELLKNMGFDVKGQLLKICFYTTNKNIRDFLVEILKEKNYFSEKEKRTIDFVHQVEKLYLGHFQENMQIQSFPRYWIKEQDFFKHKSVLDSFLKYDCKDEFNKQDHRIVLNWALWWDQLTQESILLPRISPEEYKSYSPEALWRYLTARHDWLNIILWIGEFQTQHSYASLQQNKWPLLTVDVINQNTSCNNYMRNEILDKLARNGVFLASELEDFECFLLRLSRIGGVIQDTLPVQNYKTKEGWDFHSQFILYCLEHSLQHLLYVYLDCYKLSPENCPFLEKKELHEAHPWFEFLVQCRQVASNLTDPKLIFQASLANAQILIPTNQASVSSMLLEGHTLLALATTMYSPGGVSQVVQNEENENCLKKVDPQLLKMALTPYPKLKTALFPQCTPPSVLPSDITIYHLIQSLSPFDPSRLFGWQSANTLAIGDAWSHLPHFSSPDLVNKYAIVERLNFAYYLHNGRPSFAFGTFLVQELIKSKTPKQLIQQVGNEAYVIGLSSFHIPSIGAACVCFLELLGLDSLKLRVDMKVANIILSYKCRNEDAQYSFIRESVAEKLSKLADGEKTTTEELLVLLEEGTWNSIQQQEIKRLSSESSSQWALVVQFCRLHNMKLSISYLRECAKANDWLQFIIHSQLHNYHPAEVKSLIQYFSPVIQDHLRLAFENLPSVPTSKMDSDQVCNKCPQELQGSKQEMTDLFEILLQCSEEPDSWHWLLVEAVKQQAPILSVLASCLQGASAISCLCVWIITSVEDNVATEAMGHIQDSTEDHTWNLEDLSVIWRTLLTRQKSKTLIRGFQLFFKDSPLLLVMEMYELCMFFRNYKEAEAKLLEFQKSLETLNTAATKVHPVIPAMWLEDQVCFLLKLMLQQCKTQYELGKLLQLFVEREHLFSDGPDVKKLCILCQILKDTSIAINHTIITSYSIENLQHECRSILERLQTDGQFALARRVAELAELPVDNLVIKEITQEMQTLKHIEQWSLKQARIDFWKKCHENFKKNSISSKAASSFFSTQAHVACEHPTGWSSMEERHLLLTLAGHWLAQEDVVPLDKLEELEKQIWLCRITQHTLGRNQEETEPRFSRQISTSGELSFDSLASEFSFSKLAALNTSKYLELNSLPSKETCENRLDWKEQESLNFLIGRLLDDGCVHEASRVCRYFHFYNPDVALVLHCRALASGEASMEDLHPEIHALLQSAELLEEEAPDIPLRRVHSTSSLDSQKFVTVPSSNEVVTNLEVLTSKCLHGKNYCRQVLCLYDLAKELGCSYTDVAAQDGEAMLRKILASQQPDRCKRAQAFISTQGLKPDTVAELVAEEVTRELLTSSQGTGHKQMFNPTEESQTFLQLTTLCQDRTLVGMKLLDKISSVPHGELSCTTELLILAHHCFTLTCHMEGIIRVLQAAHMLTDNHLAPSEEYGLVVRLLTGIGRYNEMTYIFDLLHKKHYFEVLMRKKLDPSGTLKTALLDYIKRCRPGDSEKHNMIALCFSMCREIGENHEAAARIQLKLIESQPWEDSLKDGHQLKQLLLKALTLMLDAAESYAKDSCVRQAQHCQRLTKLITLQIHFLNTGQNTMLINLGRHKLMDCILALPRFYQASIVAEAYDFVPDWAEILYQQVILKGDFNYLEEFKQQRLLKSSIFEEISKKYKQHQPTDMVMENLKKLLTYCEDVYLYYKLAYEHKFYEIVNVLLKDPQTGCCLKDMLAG
Chain of EIF2AK4 (Q9P2K8 whole entry): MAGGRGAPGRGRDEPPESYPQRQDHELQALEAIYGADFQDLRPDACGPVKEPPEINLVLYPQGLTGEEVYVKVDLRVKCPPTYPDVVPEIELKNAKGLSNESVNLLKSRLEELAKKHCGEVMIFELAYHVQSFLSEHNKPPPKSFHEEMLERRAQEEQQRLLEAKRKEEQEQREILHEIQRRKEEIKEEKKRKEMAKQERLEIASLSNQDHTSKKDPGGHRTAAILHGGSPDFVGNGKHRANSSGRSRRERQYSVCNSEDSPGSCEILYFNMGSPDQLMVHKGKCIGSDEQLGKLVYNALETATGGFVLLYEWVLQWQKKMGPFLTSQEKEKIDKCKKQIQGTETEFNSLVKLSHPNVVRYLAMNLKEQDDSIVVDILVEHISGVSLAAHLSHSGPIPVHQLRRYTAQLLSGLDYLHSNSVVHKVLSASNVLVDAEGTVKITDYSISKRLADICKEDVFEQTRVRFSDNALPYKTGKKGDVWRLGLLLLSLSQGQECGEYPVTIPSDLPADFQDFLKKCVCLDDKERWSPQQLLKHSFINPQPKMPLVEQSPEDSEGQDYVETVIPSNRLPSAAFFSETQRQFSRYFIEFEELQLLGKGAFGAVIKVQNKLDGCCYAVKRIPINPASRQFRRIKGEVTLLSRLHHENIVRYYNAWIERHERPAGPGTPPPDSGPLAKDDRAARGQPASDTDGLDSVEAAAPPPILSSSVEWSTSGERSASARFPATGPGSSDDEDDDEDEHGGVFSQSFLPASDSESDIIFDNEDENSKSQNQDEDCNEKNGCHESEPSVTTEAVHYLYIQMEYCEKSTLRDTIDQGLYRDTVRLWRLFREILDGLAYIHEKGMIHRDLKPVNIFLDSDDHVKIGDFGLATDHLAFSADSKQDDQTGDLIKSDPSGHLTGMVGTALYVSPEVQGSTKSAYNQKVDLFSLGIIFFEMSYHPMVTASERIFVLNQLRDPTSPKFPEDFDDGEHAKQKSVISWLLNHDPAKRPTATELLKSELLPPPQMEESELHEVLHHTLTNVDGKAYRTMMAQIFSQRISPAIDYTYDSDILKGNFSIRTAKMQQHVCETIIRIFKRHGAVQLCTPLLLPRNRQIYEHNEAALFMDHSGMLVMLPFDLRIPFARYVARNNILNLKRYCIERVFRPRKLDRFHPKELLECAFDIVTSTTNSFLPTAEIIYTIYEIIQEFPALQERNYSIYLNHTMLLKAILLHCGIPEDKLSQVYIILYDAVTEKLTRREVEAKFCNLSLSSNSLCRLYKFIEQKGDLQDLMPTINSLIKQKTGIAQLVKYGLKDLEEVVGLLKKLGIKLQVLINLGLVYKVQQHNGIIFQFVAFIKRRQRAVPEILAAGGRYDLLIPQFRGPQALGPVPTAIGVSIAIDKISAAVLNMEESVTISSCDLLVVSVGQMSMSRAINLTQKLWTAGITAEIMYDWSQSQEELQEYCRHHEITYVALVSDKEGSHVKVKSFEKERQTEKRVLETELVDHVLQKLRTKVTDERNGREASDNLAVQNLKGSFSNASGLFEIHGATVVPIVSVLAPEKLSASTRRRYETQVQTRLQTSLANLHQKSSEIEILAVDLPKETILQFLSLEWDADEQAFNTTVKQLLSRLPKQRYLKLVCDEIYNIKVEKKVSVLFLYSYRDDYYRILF

B1: LZTR1 R810W-FLAG (other, human, UniProt Q8N653 1-840, looked up)
chain: MAGPGSTGGQIGAAALAGGARSKVAPSVDFDHSCSDSVEYLTLNFGPFETVHRWRRLPPCDEFVGARRSKHTVVAYKDAIYVFGGDNGKTMLNDLLRFDVKDCSWCRAFTTGTPPAPRYHHSAVVYGSSMFVFGGYTGDIYSNSNLKNKNDLFEYKFATGQWTEWKIEGRLPVARSAHGATVYSDKLWIFAGYDGNARLNDMWTIGLQDRELTCWEEVAQSGEIPPSCCNFPVAVCRDKMFVFSGQSGAKITNNLFQFEFKDKTWTRIPTEHLLRGSPPPPQRRYGHTMVAFDRHLYVFGGAADNTLPNELHCYDVDFQTWEVVQPSSDSEVGGAEVPERACASEEVPTLTYEERVGFKKSRDVFGLDFGTTSAKQPTQPASELPSGRLFHAAAVISDAMYIFGGTVDNNIRSGEMYRFQFSCYPKCTLHEDYGRLWESRQFCDVEFVLGEKEECVQGHVAIVTARSRWLRRKITQARERLAQKLEQEAAPVPREAPGVAAGGARPPLLHVAIREAEARPFEVLMQFLYTDKIKYPRKGHVEDVLLIMDVYKLALSFQLCRLEQLCRQYIEASVDLQNVLVVCESAARLQLSQLKEHCLNFVVKESHFNQVIMMKEFERLSSPLIVEIVRRKQQPPPRTPLDQPVDIGTSLIQDMKAYLEGAGAEFCDITLLLDGHPRPAHKAILAARSSYFEAMFRSFMPEDGQVNISIGEMVPSRQAFESMLRYIYYGEVNMPPEDSLYLFAAPYYYGFYNNRLQAYCKQNLEMNVTVQNVLQILEAADKTQALDMKRHCLHIIVHQFTKVSKLPTLWSLSQQLLLDIIDSLASHISDKQCAELGADI
notes: Stably expressed in U87 cells by lentivirus; also called LZTR1-FLAG-R810W; LZTR1 RW; not shown: FLAG tag
binds: all assays above

Source: patent US20250262210A1 (TRUSTEES OF COLUMBIA UNIVERSITY IN THE CITY OF NEW YORK, published 2025)
